Measured values reported in paper PMC8808172 (The Journal of Biological Chemistry, 2021).

T1: ClpX N-terminal zinc-binding domain (ClpXN; amino acids 1–55) (E. coli, UniProt P0A6H1 1-55)
T1 sequence (looked up): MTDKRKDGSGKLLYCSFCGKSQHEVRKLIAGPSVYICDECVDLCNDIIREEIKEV

B1: MqsA_(1–34) (domain or fragment, E. coli, UniProt Q46864 1-34, looked up)
chain: MKCPVCHQGEMVSGIKDIPYTFRGRKTVLKGIHG
B2: Gfp-MqsA_(1–34) (domain or fragment, E. coli, UniProt Q46864 1-34, looked up)
chain: B1 chain
B3: ClpX(H23A) (enzyme)
chain: not shown
B4: ClpX(L12S) (enzyme)
chain: not shown
B5: ClpX (WT) (enzyme)
chain: not shown
B6: ClpX(L13D) (enzyme)
chain: not shown
B7: ClpX(L13A) (enzyme)
chain: not shown
B8: ClpX(A30S) (enzyme)
chain: not shown

Key:
[1] = target: T1, ClpX N-terminal zinc-binding domain …; assay: NMR titration
ClpX(A30S) = target: B8; assay: filter retention assay
ClpX (WT) = target: B5; assay: filter retention assay
SEC = target: the molecule itself; assay: SEC

Row | Binder | stoichiometry N (SEC) | also measured
1 | B1 |  | binding result [1]: binds
2 | B2 |  | binding result (ClpX(A30S)): binds; binding result (ClpX (WT)): binds
3 | B3 | 6 | 
4 | B4 | 6 | 
5 | B5 | 6 | 
6 | B6 | 6 | 
7 | B7 | 6 | 
8 | B8 | 6 | 
